Patent US20230103793A1 (DYNE THERAPEUTICS, published 2023)

Columns and labels:
recombinant human TfR1 = molecular target: T1, recombinant human TfR1 (human, UniProt P02786 89-760); assay: ELISA, conjugate against unconjugated antibody
T1 construct: Recombinant huTfR1 coated on ELISA plates or used in the immunoprecipitation; also called huTfR1; hTfR1

recombinant cyno TfR1 = molecular target: T2, recombinant cyno TfR1 (cynomolgus monkey (Macaca fascicularis), UniProt Q5RDH6 87-760 (Pongo abelii entry), limits assumed); assay: ELISA, conjugate against unconjugated antibody
T2 construct: Recombinant cynoTfR1 coated on ELISA plates; also called cTfR1; cynomolgus monkey TfR1
T2 chain: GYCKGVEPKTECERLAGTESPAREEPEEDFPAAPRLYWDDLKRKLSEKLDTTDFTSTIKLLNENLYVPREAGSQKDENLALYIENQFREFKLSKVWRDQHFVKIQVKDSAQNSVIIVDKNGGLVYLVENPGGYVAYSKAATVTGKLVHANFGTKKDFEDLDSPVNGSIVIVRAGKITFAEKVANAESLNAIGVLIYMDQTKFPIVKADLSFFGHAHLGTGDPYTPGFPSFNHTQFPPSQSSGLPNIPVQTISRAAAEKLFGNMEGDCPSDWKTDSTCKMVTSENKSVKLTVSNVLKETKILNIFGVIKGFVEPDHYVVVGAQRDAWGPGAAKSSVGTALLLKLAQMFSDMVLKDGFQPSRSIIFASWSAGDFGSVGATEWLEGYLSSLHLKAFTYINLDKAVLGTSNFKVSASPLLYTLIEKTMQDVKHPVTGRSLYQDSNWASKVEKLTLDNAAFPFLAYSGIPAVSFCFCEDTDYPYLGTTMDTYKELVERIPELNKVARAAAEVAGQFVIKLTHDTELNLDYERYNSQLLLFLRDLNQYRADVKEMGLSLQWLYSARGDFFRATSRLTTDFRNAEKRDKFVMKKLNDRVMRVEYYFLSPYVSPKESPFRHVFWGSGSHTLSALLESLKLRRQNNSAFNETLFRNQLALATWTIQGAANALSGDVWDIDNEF

fold increase of binding upon conjugation (against unconjugated anti-TfR) (recombinant human TfR1): 3 to 6 fold | fold increase of binding upon conjugation (against unconjugated anti-TfR) (recombinant cyno TfR1): 3 to 6 fold
B1: anti-TfR (VH of SEQ ID NO: 17 and VL of SEQ ID NO: 18) conjugated to a DMPK-targeting oligonucleotide (control DMPK-ASO) (antibody, V domains shown)
VH: QVQLVQSGAEVKKPGESLKISCKGSGYSFTSYWIGWVRQMPGKGLEWMGIIYPGDSDTRYSPSFQGQVTISADKSISTAYLQWSSLKASDTAMYYCARFPYDSSGYYSFDYWGQGTLVTVSS
VL: not shown
modifications: DMPK-targeting antisense oligonucleotide linked through a cathepsin-cleavable Val-Cit linker to the ε-amine of lysine of the antibody (site and chain not stated)
notes: In the uptake assay several different DMPK-targeting oligonucleotides were used and the conjugates were also labeled with Cypher5e; also called anti-TfR in conjugates with a DMPK targeting oligo; oligonucleotide-conjugated anti-TfR
